From patent publication US20060025337

Molecular target: T1, p53-382 acetylated peptide substrate ('Fluor de Lys-SIRT1', BIOMOL) (not fully specified)
T1 chain: RHKK

B1: recombinant human SIRT1 (His6-tagged) (protein)
chain: MADEAALALQPGGSPSAAGADREAASSPAGEPLRKRPRRDGPGLERSPGEPGGAAPEREVPAAARGCPGAAAAALWREAEAEAAAAGGEQEAQATAAAGEGDNGPGLQGPSREPPLADNLYDEDDDDEGEEEEEAAAAAIGYRDNLLFGDEIITNGFHSCESDEEDRASHASSSDWTPRPRIGPYTFVQQHLMIGTDPRTILKDLLPETIPPPELDDMTLWQIVINILSEPPKRKKRKDINTIEDAVKLLQECKKIIVLTGAGVSVSCGIPDFRSRDGIYARLAVDFPDLPDPQAMFDIEYFRKDPRPFFKFAKEIYPGQFQPSLCHKFIALSDKEGKLLRNYTQNIDTLEQVAGIQRIIQCHGSFATASCLICKYKVDCEAVRGDIFNQVVPRCPRCPADEPLAIMKPEIVFFGENLPEQFHRAMKYDKDEVDLLIVIGSSLKVRPVALIPSSIPHEVPQILINREPLPHLHFDVELLGDCDVIINELCHRLGGEYAKLCCNPVKLSEITEKPPRTQKELAYLSELPPTPLHVSEDSSSPERTSPPDSSVIVTLLDQAAKSNDDLDVSESKGCMEEKPQEVQTSRNVESIAEQMENPDLKNVGSSTGEKNERTSVAGTVRKCWPNRVAKEQISRRLDGNQYLFLPPNRYIFHGAEVYSDSEDDVLSSSSCGSNSDSGTCQSPSLEEPMEDESEIEEFYNGLEDEPDVPERAGGAGFGTDGDDQEAINEAISVKQEVTDMNYPSNKS
Km for p53-382 acetylated peptide (SIRT1 initial rate at 3 mM NAD+, control, no resveratrol): Km(control, ν)=64 µM | Km for p53-382 acetylated peptide (SIRT1 initial rate at 3 mM NAD+, with 100 µM resveratrol): Km (+resveratrol, Δ)=1.8 µM | fold decrease of the acetylated peptide Km caused by 100 µM resveratrol: Its effect on the acetylated peptide Km was particularly striking, amounting to a 35-fold decrease
